According to patent US12404607:

What was measured:
Experiment in all cases: ELISA, antigen coated at 2 ug/mL
[1] = biological target: CoV-2 RBD (W436R) (SARS-CoV-2) (UniProt P0DTC2)
[2] = biological target: CoV-2 RBD (N354D, D364Y) (SARS-CoV-2) (UniProt P0DTC2)
[3] = biological target: CoV-2 RBD (N354D) (SARS-CoV-2) (UniProt P0DTC2)
[4] = biological target: CoV-2 S (R683A, R685A) (SARS-CoV-2) (UniProt P0DTC2)
[5] = biological target: CoV-2 RBD (V367F) (SARS-CoV-2) (UniProt P0DTC2)
[6] = biological target: CoV-2 S (D614G) (SARS-CoV-2) (UniProt P0DTC2)

Row | Substance | EC50 [1] [µg/mL] | EC50 [2] [µg/mL] | EC50 [3] [µg/mL] | EC50 [4] [µg/mL] | EC50 [5] [µg/mL] | EC50 [6] [µg/mL]
1 | SARS CoV-2 mAb [SAD-S35] (Acro Biosystems) (antibody) | 0.04 | 0.05 | 0.04 | 0.05 | 0.04 | 0.03
2 | rCIG (recombinant coronavirus-2 immune globulin; recombinant anti-coronavirus 19 hyperimmune gammaglobulin) | 0.07 | 0.08 | 0.07 | 0.09 | 0.07 | 0.05
